Assay [1] addresses T1, murine PD-1-Fc (murine, UniProt Q02242 25-167).
T1 construct: Surface-immobilized in the BLI assay; It differs from the selection antigen (murine PD-1 31-150, C83S, AviTag); also called murine PD-iFc; not shown: Fc portion
T1 sequence (looked up): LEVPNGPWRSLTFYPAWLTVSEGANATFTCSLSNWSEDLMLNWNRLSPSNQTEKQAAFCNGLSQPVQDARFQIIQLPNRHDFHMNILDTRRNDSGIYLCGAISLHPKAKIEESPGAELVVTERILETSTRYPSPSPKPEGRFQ
Kind of assay: bio-layer interferometry (Octet), murine PD-1-Fc surface-immobilized, His-tagged PD-L1 domain. As for the experimental part: Amino acids are indicated and shown as sticks. (B) Structural alignment indicates an identical structural conformation. (C)-(E) Representative bio-layer interferometry sensograms for PD-L1 wt (C) and two indicated engineered PD-L1 variants (D, E). Raw data (thick lines) was fitted using 1:1 langmuir interaction model (thin lines).
(§1) Phage selections were performed using as an antigen recombinant murine PD-1 protein (amino acids 31-150) with C83S substitution fused to AviTag peptide, biotinylated in vivo and purified from E. coli. After a couple of selection rounds, binding of enriched phage clones were analyzed by ELISA and the selected PD-L1 variants were sequenced. In a competitive phage IC₅₀ ELISA, the 5 PD-L1 variants were examined for their binding properties by competing with 500 nM or 50 nM in solution with PD-1-Fc (FIG. 1).
Amino acid positions 54, 56, 63, 66, 68, 69, 76, 113, 115, and 121-125 were randomized. For the selected variants, dashes represent no amino acid change relative to the wild type sequence. Kd values for the interaction of the variants and murine PD-1 were obtained by bio-layer interferometry; n/a—not available. Table 2 indicates R113 because the original C113 of the murine sequence was substituted already prior to library construction, as indicated above.

Assay [2] deals with T1, murine PD-1-Fc. Kind of assay: bio-layer interferometry 'in similar experiments', dimeric Fc fusion (avidity). On the procedure:
as §1
(§2) After expression and purification of the Fc fusion proteins, we obtained with one step purification on a protein A column, good purity and an average yield of 200 mg/L Expi293F culture (FIG. 4). In order to verify whether the purified protein is still binding the PD-1, we determined PD-1/PD-L1 affinities as before.
(Biolayer interferometry detects binding as a change in optical thickness at a sensor tip.)

The target of assay [3] is T1, murine PD-1-Fc. Kind of assay: bio-layer interferometry 'as before', dimeric Fc fusion (avidity). On the procedure: as §1, §2
The target of assay [4] is T1, murine PD-1-Fc. Kind of assay: bio-layer interferometry, Fc fusions; reference wt Fc fusion.
Assay [5] deals with T1, murine PD-1-Fc. Kind of assay: bio-layer interferometry, monomeric variant 258 as retold in the text (Table 1 prints 2.17).
For assay [6], the target named is T1, murine PD-1-Fc. Kind of assay: bio-layer interferometry (Octet), murine PD-1-Fc surface-immobilized; reference PD-L1 wt in the same format.

Here are results for six molecules from US20230174619A1 (published 2023).

Residue numbers refer to the chain shown, from its start. Names and notes keep the numbering of the source.

B1: PD-L1 wt, distal Ig-like domain of murine PD-L1 (amino acids 18-132) with C113R, His-tag fusion expressed in E. coli (ligand)
chain: AFTITAPKDLYVVEYGSNVTMECRFPVERELDLLALVVYWEKEDEQVIQFVAGEEDLKPQHSNFRGRASLPKDQLLKGNAALQITDVKLQDAGVYRCIISYGGADYKRITLKVNA
notes: also called unmodified PD-L1 wt; wt PD-L1; not shown: His-tag
B1 had a Kd in assay [1] of 66 nM.

B2: PD-L1 wt Fc fusion protein (Ig-like V-type domain of PD-L1 fused to human Fc), expressed in Expi293F (Fc fusion)
chain: B1 chain
notes: also called wt (200); wt protein; not shown: linker/hinge and human Fc
In turn, B2 returned a Kd in assay [2] of roughly 0.6 nM.

B3: PD-L1 variant 258 Fc fusion protein (Ig-like V-type domain fused to human Fc), expressed in Expi293F (Fc fusion)
chain: B1 chain with Y39S, P59F, I98L
notes: not shown: linker/hinge and human Fc
In assay [3], B3 returned a Kd of 0.077 nM. Further, the “fold improved affinity against the wt Fc fusion” value in assay [4] was no more than 8 fold.

B4: PD-L1 variant 214 Fc fusion protein (Ig-like V-type domain fused to human Fc), expressed in Expi293F (Fc fusion)
chain: B1 chain with V37L, Y39D, Q49R, V51E, A52S, P59H
notes: as for B3
Regarding B4, in assay [3], the Kd amounted to 0.088 nM. Besides, the “fold improved affinity against the wt Fc fusion” value in assay [4] was no more than 8 fold.

B5: PD-L1 variant 258, distal Ig-like domain of murine PD-L1 (amino acids 18-132), His-tag fusion expressed in E. coli (ligand)
chain: B1 chain with Y39S, P59F, I98L
notes: not shown: His-tag
In the case of B5, the Kd in assay [5] came out at 2.14 nM; in assay [1], 2.17 nM. Moreover, in assay [6], the “fold advantage in binding compared to PD-L1 wt” value is no more than 30 fold.

B6: PD-L1 variant 214, distal Ig-like domain of murine PD-L1 (amino acids 18-132), His-tag fusion expressed in E. coli (ligand)
chain: B1 chain with V37L, Y39D, Q49R, V51E, A52S, P59H
notes: not shown: His-tag
Consider B6, for which the Kd in assay [1] is 2.54 nM. The “fold advantage in binding compared to PD-L1 wt” value in assay [6] is no more than 30 fold.
